Experimental findings from patent US9988424 (DUKE UNIVERSITY, dated 2018) are described below.

Like-named read-outs stand apart in the source and are kept apart here.

For one experiment, the target named is T1, AE.con env03 40CF.
T1 construct: also called AE.con gp140CF; AE.con.env03 gp140CF
As to the kind of experiment: ELISA OD405nm, bar chart, antibody concentration not given.

For the next experiment, the target named is T2, Con 6 120.
T2 construct: also called Con 6 gp120
Described as above.

The target in experiment [1] is B.040 gp140C. Described as above.
The target in experiment [2] is T3, SIV CPZ US-1 gp140CF (SIVcpz).
T3 construct: also called US-1 SIVCPZ gp140CF
T3 chain: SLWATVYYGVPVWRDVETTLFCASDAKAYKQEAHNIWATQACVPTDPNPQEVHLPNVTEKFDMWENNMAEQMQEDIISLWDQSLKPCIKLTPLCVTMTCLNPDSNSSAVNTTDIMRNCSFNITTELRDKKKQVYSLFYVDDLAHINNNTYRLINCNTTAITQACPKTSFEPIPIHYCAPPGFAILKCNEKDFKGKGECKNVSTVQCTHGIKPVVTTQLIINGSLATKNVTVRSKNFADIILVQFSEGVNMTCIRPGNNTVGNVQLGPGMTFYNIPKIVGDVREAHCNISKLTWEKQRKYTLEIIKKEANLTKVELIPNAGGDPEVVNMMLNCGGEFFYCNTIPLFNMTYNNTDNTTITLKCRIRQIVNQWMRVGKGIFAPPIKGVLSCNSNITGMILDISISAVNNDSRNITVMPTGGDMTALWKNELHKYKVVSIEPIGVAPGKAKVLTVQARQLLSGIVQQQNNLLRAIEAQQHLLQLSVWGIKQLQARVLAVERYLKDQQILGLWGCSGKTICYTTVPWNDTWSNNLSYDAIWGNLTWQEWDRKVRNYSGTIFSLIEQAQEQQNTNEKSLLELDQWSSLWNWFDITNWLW
The experiment is described as above.

In the next experiment the target is T4, G.con 140CF.
T4 construct: also called G.con gp140CF; G.con.env03 gp140CF
The description is as above.

Experiment [3] addresses T5, B.62357 140C.
T5 construct: also called B.62357 gp140C
The description is as above.

A further experiment deals with T6, B.con env03 140CF.
T6 construct: also called B.con gp140CF
Described as above.

Experiment [4] addresses T7, AE.A244 V1/V2 tags, natively deglycosylated (HIV-1).
T7 construct: also called AE.A244V1V2 tags Degly
Nature of the experiment: ELISA. A general note: An ELISA detects its analyte on a solid surface through an enzyme-linked reagent.

In experiment [5] the target is T8, B.62357 140C.
T8 construct: also called B.62357 gp140C
As to the kind of experiment: ELISA, OD405.

In another experiment the target is B. 681-7 gp140C. As to the kind of experiment: ELISA, OD405.
The target in the next experiment is T9, D.9009SA V1V2 Tags.
T9 Env construct: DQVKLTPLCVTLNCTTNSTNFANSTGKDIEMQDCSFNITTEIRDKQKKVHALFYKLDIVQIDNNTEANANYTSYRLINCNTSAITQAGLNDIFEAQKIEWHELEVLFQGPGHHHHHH
Nature of the experiment: ELISA, OD405.

Experiment [6] deals with Con 6 gp120. Nature of the experiment: ELISA, OD405.
Experiment [7] concerns the target B. 684-6 gp140C. As to the kind of experiment: ELISA, OD405.
Another experiment has as its target T10, B.con gp140CF.
T10 construct: also called B.con.env03 gp140CF
As to the kind of experiment: ELISA, OD405.

Experiment [8] deals with B.040 gp140C. As to the kind of experiment: ELISA, OD405.
The target in a further experiment is T11, G.con gp140CF.
T11 construct: also called G.con.env03 gp140CF
As to the kind of experiment: ELISA, OD405.

The target of another experiment is T12, AE.con gp140CF.
T12 construct: also called AE.con.env03 gp140CF
As to the kind of experiment: ELISA, OD405.

The target in another experiment is B.63521 gp140C. Nature of the experiment: ELISA, OD405.
Another experiment concerns the target T13, A.9004SS V1V2 Tags.
T13 Env construct: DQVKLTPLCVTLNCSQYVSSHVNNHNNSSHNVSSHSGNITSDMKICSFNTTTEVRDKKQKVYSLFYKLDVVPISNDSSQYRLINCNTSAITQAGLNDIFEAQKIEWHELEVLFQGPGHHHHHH
As to the kind of experiment: ELISA, OD405.

A further experiment has as its target T14, B.63521_V1V2 Tags.
T14 Env construct: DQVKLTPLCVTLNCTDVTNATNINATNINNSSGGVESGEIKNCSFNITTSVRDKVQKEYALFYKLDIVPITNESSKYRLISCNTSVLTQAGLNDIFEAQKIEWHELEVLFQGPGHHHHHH
As to the kind of experiment: ELISA, OD405.

The target of another experiment is T15, B.Case A2 V1/V2 Tags.
T15 Env construct: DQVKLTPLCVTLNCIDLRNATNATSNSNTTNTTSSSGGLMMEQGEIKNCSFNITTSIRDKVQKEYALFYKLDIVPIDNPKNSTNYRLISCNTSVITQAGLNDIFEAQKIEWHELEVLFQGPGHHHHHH
As to the kind of experiment: ELISA, OD405.

Experiment [9] concerns the target Con 6 gp120. Nature of the experiment: ELISA, OD405. The source holds these as a separate data set.
Experiment [10] concerns the target B. 684-6 gp140C. As to the kind of experiment: ELISA, OD405. This is another data set of the same source.
For experiment [11], the target named is T3, SIV CPZ US-1 gp140CF. Nature of the experiment: ELISA, OD405.
In experiment [12] the target is B.040 gp140C. Nature of the experiment: ELISA, OD405. The source holds these as a separate data set.
The target of the next experiment is T16, B.HXB/BAL gp140CFI (HIV-1, UniProt P04578 33-680).
T16 construct: also called B.HxB/Ba gp140 CFI
As to the kind of experiment: ELISA, OD405.

The next experiment deals with T17, AE.A244 gp120 delta 11 (HIV-1).
T17 construct: also called E.A244gp120Δ11; AE.A244 Δ11 gp120
Nature of the experiment: SPR, mAb captured on anti-Fc, monomeric gp120 injected.

B1: CH58 reverted unmutated ancestor antibody (antibody, V domains shown)
VH: EVQLVQSGAEVKKPGESLKISCKGSGYSFTSYWIGWVRQMPGKGLEWMGIIYPGDSDTRYSPSFQGQVTISADKSISTAYLQWSSLKASDTAMYYCARLGGRYYYDSSGYYYFDYWGQGTLVTVSS
VL: NFMLTQPHSVSESPGKTVTISCTRSSGSIASNYVQWYQQRPGSSPTTVIYEDNQRPSGVPDRFSGSIDSSSNSASLTISGLKTEDEADYYCQSYDSSSWVFGGGTKLTVL
notes: also called CH58 RUA; CH58_RUA
On to B1, for which the binding result in the experiment with AE.con env03 40CF, in the experiment with Con 6 120, with B.040 gp140C [1], with SIV CPZ US-1 gp140CF [2], with G.con 140CF and with B.62357 140C [3] was “no binding (tested: not given)” each time. In addition, in the experiment with B.con env03 140CF, the binding result is given as “no binding (tested: not given)”.

B2: 697D (antibody, V domains shown)
VH: QVQLVQSGAEVKKPGSSVKVSCKASGGNFNTYTISWVRQAPGQGLEWMGRIIPIFGIVNPAQKFPGRVTINVDKSTNTAYMELSSLRSEDTAVYYCATSGVGLHFGYFDYWGQGTQVTVSS
VL: QSVLTQPPSVSGAPGQRVTISCTGSSSNIGAHYDVHWYQQLPGTAPKLLIYGNSNRPSGVPDRFSGSKSGTSASLAITGLQAEDEADYYCQSYDSSLSGYVFGTGTKVTVL
notes: also called mAb 697D; V2 conformational mAb 697D
Turning to B2, the “fold decrease of binding against the glycosylated protein” value in [4] came to 6 fold.

B3: PG9 reverted unmutated ancestor antibody (antibody, V domains shown)
VH: QVQLVESGGGVVQPGRSLRLSCAASGFTFSSYGMHWVRQAPGKGLEWVAVISYDGSNKYYADSVKGRFTISRDNSKNTLYLQMNSLRAEDTAVYYCAREAGGPDYRNGYNYYDFWSGYYNYYYMDVWGKGTTVTVSS
VL: QSALTQPASVSGSPGQSITISCTGTSSDVGSYNLVSWYQQHPGKAPKLMIYEVSKRPSGVSNRFSGSKSGNTASLTISGLQAEDEADYYCCSLTSTRRWVFGGGTKLTVL
notes: also called PG9 RUA; PG9_RUA
With B3, the binding result with B.62357 140C [5], in the experiment with B. 681-7 gp140C, with D.9009SA V1V2 Tags, with Con 6 gp120 [6], with B. 684-6 gp140C [7] and in the experiment with B.con gp140CF was “no binding (tested: 10 ug/ml)” each time. In addition, the binding result with B.040 gp140C [8], with G.con gp140CF, with AE.con gp140CF, with B.63521 gp140C, with A.9004SS V1V2 Tags and with B.63521_V1V2 Tags was “no binding (tested: 10 ug/ml)” throughout. Moreover, the binding result in the experiment with B.Case A2 V1/V2 Tags was “no binding (tested: 10 ug/ml)”.

B4: CH59 (antibody, V domains shown)
VH: EVQLVESGGGLVQPGRSLRLSCAASGFTFDDGAMHWVRQAPGKGLEWVSGISWNSNIIAYADSVKGRFTISRDNAKNSLYLEMNSLRVEDTALYYCAKDSPRGELPLNYWGQGTLVTVSS
VL: SYELTQPPSVSVSPGQTARITCSGDALPKNYAYWYQQKSGQAPVLVIYEDSKRPSGIPERFSGSSSGTMATLTISGAQVEDEADYYCYSTDSSGNHRVFGGGTKLTVL
notes: also called mAb CH59
As to B4, the binding result with Con 6 gp120 [9], with B. 684-6 gp140C [10], in the experiment with SIV CPZ US-1 gp140CF [11], in the experiment with B.040 gp140C [12] and in the experiment with B.HXB/BAL gp140CFI was “no binding (tested: 10 ug/ml)” throughout. Besides, in the experiment with AE.A244 gp120 delta 11, the Kd (as a rule, the constant that tells how readily two partners part at equilibrium) amounted to 2.2 nM.
